According to patent US20240325564A1, “PHARMACEUTICAL COMPOSITION CONTAINING ANTI-TROP2 ANTIBODY DRUG CONJUGATE AND ITS APPLICATION” (JIANGSU HENGRUI PHARMACEUTICALS CO., LTD., priority 2021, published 2024):
Positions count from the first letter of the chain named.

T1: TROP-2 expressed on cells (UniProt P09758 27-323, limits assumed)
T1 sequence (looked up): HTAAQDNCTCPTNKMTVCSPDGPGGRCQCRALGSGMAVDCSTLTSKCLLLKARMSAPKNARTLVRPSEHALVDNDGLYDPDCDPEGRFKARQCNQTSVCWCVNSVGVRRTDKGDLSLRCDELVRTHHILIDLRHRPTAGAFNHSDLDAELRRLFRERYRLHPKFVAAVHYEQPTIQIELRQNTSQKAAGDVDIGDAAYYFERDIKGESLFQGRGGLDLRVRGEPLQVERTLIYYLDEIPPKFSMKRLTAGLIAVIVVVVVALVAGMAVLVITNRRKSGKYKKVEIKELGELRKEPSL

B1: PD3 anti-TROP2 antibody (antibody, human IgG1, kappa, V domains shown)
VH: EVQLVQSGSELKKPGASVKVSCKASGYTFTNYGMNWVKQAPGQGLKWMGWINTYTGEPTYTQDFKGRFAFSLDTSVSTAYLQISSLKAEDTAVYYCARGGFGSSYWYFDVWGQGTLVTVSS
VL: DIQLTQSPSSLSASVGDRVSITCKASQDVSIAVAWYQQKPGKAPKLLIYSASYRYTGVPDRFSGSGSGTDFTLTISSLQPEDFAVYYCQQHYITPLTFGAGTKVEIKR
B2: ADC-7 (hRS7-9-A) (antibody, human IgG1, kappa, V domains shown)
VH: B1 VH with E1Q, V5Q, Q62D, E89D, Y95F, T115S
VL: B1 VL
modifications: compound 9-A (linker-drug) conjugated after TCEP reduction of the antibody; average n=3.72 per antibody (UV-Vis); sites not stated
B3: TINA antibody (constructed according to WO2015098099A1) (antibody, human IgG1, kappa, V domains shown)
VH: QVQLVQSGAEVKKPGASVKVSCKASGYTFTTAGMQWVRQAPGQGLEWMGWINTHSGVPKYAEDFKGRVTISADTSTSTAYLQLSSLKSEDTAVYYCARSGFGSSYWYFDVWGQGTLVTVSS
VL: B1 VL with L4M, S20T, I31T, D60S, A100Q, V104L
B4: ADC-4 (TINA-58) (antibody, human IgG1, kappa, V domains shown)
VH: B3 VH
VL: B1 VL with L4M, S20T, I31T, D60S, A100Q, V104L
modifications: compound 58 (linker-drug) conjugated after TCEP reduction of the antibody; average n=3.99 per antibody (UV-Vis); sites not stated
B5: ADC-5 (PD3-58) (antibody, human IgG1, kappa, V domains shown)
VH: B1 VH
VL: B1 VL
modifications: compound 58 (linker-drug) conjugated after TCEP reduction of the antibody; average n=3.88 per antibody (UV-Vis); sites not stated
B6: hRS7 (control anti-TROP-2 antibody, constructed according to WO03074566) (antibody, human IgG1, kappa, V domains shown)
VH: B1 VH with E1Q, V5Q, Q62D, E89D, Y95F, T115S
VL: B1 VL

Key:
Assay in all cases: cell-based or functional assay
[1] = target: T1, TROP-2 expressed on cells
[2] = target: T1, TROP-2 expressed on cells; remark: listed apart in the source
[3] = target: T1, TROP-2 expressed on cells; remark: listed apart in the source

Binder	EC50, antibody endocytic activity (DT3C cell killing, CTG) [1] [pM]	Emax, antibody endocytic activity (DT3C cell killing, CTG) [1] [%]	EC50, killing activity on Colo205(++) cells [2] [pM]	EC50, killing activity on DMS53(++) cells [2] [pM]	EC50, killing activity on FaDu(+++) cells [2] [pM]	EC50, killing activity on HCC827(+++) cells [2] [pM]	Emax, killing activity on Colo205(++) cells [2] [%]	Emax, killing activity on DMS53(++) cells [2] [%]	Emax, killing activity on FaDu(+++) cells [2] [%]	Emax, killing activity on HCC827(+++) cells [2] [%]	Emax, killing activity on SK-OV-3(+) cells [2] [%]	further results
B1	150	99.1	–	–	–	–	–	–	–	–	–	–
B2	–	–	52800	72900	310	180	99.5	88.7	101	89.3	66.1	–
B3	180	98.7	–	–	–	–	–	–	–	–	–	–
B4	–	–	59800	75600	530	270	99.7	89.8	101	88.2	49.1	–
B5	–	–	–	–	–	–	–	–	–	–	–	EC50, killing activity on Colo205 cells (second parallel assay) [3]: 25600 pM; EC50, killing activity on DMS53 cells (second parallel assay) [3]: 25700 pM; EC50, killing activity on FaDu cells (second parallel assay) [3]: 140 pM; EC50, killing activity on HCC827 cells (second parallel assay) [3]: 130 pM
B6	180	98.5	–	–	–	–	–	–	–	–	–	–
